Results: US20120263734A1 (THERACLONE SCIENCES, published 2012)

Molecular target: GPCMV gB (glycoprotein B of Guinea Pig CMV strain V545/82) (guinea pig CMV (GPCMV))
Assay: cell-based or functional assay

| Binder | neutralization of GPCMV V545/82 entry into JH4 cells (highest concentration tested, no effect) |
| --- | --- |
| 2N9 human anti-CMV antibody (antibody, V domains shown) VH: QVQLVESGGGVVQPGRSLRLSCAASGFTFSSNGIHWVRQAPGKGLDWVAVISSDANDKQYADSVKGRFTISRDNSKNMVYLQMNSLRVEDTAVYFCARDGTCSGGNCYSGLIDYWGRGILVTVSS VL: EIVLTQSPATLSLSPGERATLSCRASQSVGGYLAWYQQKPGQAPRLLIYDASIRATGIPARFSGSGSGTDFTLTISSLEPEDFAVYYCHQRSNWPPLTFGGGTKVDIKR | > 300 µg/mL |
| 2F10 human anti-CMV antibody (antibody, V domains shown) VH: QVHLVESGGGVVQPGRALRLSCAATGFTFSNHGIHWVRQAPGKGLEWLAVISSDGDDDRYADSVKGRFSVSRDNSKNTVHLQMNGLRPDDTAIYFCARDGRCGEPKCYSGLPDYWGRGTLVTVSS VL: EIVLTQSPATLSLSPGDRATLSCRASQSVGGYLAWYQQKPGQAPRLLLYDASNRATGIPARFSGSGSGTDFTLTISSLEPEDFALYYCLQRNTWPPLTFGGGTKVEIKR | > 300 µg/mL |
| 5P9 human anti-CMV antibody (antibody, V domains shown) VH: QVQLVESGGGVIQPGRSLRLSCVASKFIFSNHGIHWVRQAPGKGLEWVAVISKDGTNAHYADSVRGRFSISRDNSKDTVFLEMRSLRPEDTAVYYCAREGRCIEEKCYSGQIDYWGQGSLVTVSS VL: EILLTQSPATLSLSPGERATLSCRASQSVGRYMAWYQQRPGQAPRLLIYDASIRATGIPARFSGSGSGTDFTLTISSLQTEDFAIYYCQQRSSWPPLTFGGGTKVEIKR | > 300 µg/mL |
| 4P12 human anti-CMV antibody (antibody, V domains shown) VH: QVQLVESGGGVIQPGRSLRLSCVASKFIFSNHGIHWVRQAPGKGLEWVAVISKDGTNAHYADSVRGRFSISRDNSKDTVFLEMRSLRPEDTAVYYCAREGRCIEENCYSGQIDYWGQGSLVTVSS VL: EILLTQSPATLSLSPGERATLSCRASQSVGRYMAWYQQRPGQAPRLLIYDASIRATGIPARFSGSGSGTDFTLTISSLQPEDFAIYYCQQRSSWPPLTFGGGTKVEIKR | > 300 µg/mL |
